In data set [1] the target is OVOL2 C120Y C120Y (Mus musculus) (UniProt Q8CIV7). Briefly: EMSA. The conditions noted are these: 1 nM probe; 53 ng or 1.7 ug protein; severely impaired; EMSA: 1 nM 5'-biotin DNA probe, room temperature, 30 min (1 h for Fig. 7E), LightShift Chemiluminescent EMSA Kit; specific competitor 4.5 uM where used …. (In EMSA bound probe runs differently from free probe, usually more slowly.)

The target in data set [2] is OVOL2 WT (Mus musculus) (UniProt Q8CIV7). Briefly: EMSA. Particulars: 1 nM probe; 53 ng protein; EMSA: 1 nM 5'-biotin DNA probe, room temperature, 30 min (1 h for Fig. 7E), LightShift Chemiluminescent EMSA Kit; specific competitor 4.5 uM where used ….

Take “AACCGTTACC (double strand) [OVOL2 probe]”: the binding signal (relative to WT = 128) in data set [1] is 1. The binding signal (fold (WT:C120Y DNA binding ability)) in data set [2] stood at 128.

Values taken from article PMC10682436.
